# According to PMC2954336, “Biophysical characterization of recombinant proteins: A key to higher structural genomics success” (Journal of Structural Biology, 2010):
# Ends that are not written are not given here. fluorescein = fluorescein label on the N-terminus of the peptide (end-label); Me2 = dimethyl on Lys
# B1: 11-mer fluorescein-labeled histone H3 peptide dimethylated on lysine 4 (F-H3K4Me2) (peptide)
# chain: fluorescein-ARTK(Me2)QTARKST
# Target: WDR5 (WD repeat domain 5) (UniProt P61964 1-334)
# Experiment: fluorescence polarisation; 36 nM fluorescein-labeled peptide titrated with WDR5 from 30 nM to 30 uM; 100 mM potassium phosphate buffer pH 8, 0.01% Triton X-100; data fitted to a hyperbolic equation
# Settings: both partners purified
binder,measurement,value
B1,Kd,100 ± 9 nM
